These results are taken from paper PMC9359501 (Med (New York, N.Y.), 2022).

The target in the assay is SARS-CoV-2 Spike S1 (Omicron), His-tagged (SARS-CoV-2 Omicron B.1.1.529 BA.1, strain). The assay can be described thus: SPR. In general terms: Surface plasmon resonance follows binding to a sensor surface in real time, without labels.

B1: S309 (sotrovimab) reference clone neutralizing antibody (antibody, V domains shown)
VH: not shown
VL: EIVLTQSPGTLSLSPGERATLSCRASQTVSSTSLAWYQQKPGQAPRLLIYGASSRATGIPDRFSGSGSGTDFTLTISRLEPEDFAVYYCQQHDTSLTFGGGTKVEIK
In general, Kd refers to the equilibrium constant for the complex coming apart. Lower therefore signals higher affinity. The koff is the first-order rate constant of dissociation. Usually kon stands for the second-order rate constant of association. B1 yielded a dissociation constant Kd of 24.5 nM, a koff of 0.000395 s⁻¹ and a kon of 16200 M⁻¹ s⁻¹.

B2: LY-CoV1404 (bebtelovimab) reference clone neutralizing antibody (antibody, V domains shown)
VH: QITLKESGPTLVKPTQTLTLTCTFSGFSLSISGVGVGWLRQPPGKALEWLALIYWDDDKRYSPSLKSRLTISKDTSKNQVVLKMTNIDPVDTATYYCAHHSISTIFDHWGQGTLVTVSS
VL: QSALTQPASVSGSPGQSITISCTATSSDVGDYNYVSWYQQHPGKAPKLMIFEVSDRPSGISNRFSGSKSGNTASLTISGLQAEDEADYYCSSYTTSSAVFGGGTKLTVL
B2 gave a Kd of 85.5 nM, a koff of 0.00677 s⁻¹ and a kon of 79200 M⁻¹ s⁻¹.
